Paper PMC5356539, “Neuropilin-1 is a receptor for extracellular miRNA and AGO2/miRNA complexes and mediates the internalization of miRNAs that modulate cell function” (Oncotarget, 2016)

Target: T1, Human recombinant AGO2, full-length protein (human, UniProt Q9UKV8 1-859)
T1 construct: human AGO2 (argonaute 2), full-length recombinant protein; also called full-length AGO2; source: bought: Biorbyt
Assay: ELISA; plate coated with NRP1-Fc; full-length AGO2 pre-mixed or not with an equimolar amount of miR-20a (1 h, 37°C, Ca/Mg-HBSS) and serially diluted; bound AGO2 detected with anti-pan AGO2 antibody, anti-mouse IgG-HRP and TMB (OD450 minus non-specific binding)
Details: both partners purified

T1 sequence (Q9UKV8 whole entry): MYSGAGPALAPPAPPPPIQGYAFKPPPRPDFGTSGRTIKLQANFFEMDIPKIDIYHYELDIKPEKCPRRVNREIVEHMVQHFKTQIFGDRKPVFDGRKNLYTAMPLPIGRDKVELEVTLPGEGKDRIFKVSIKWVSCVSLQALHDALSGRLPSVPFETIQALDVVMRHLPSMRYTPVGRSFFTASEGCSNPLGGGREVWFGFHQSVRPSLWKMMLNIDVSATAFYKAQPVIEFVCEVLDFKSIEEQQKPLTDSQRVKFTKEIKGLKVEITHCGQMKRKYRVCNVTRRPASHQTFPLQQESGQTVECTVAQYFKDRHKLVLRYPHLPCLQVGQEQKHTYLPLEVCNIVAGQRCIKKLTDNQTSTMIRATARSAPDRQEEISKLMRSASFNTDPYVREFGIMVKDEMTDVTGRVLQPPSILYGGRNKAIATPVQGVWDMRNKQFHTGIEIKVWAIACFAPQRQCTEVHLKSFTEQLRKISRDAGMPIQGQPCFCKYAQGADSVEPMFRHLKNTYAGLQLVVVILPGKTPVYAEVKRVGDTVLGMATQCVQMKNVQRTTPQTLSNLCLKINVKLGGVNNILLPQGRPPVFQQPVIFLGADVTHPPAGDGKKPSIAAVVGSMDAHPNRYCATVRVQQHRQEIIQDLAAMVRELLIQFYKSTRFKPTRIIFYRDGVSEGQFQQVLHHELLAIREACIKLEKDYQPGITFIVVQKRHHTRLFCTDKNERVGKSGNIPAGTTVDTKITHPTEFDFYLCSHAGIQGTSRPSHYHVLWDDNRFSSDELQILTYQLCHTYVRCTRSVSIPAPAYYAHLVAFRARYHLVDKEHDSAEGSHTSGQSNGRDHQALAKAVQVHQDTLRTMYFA

B1: Recombinant full-length rat neuropilin-1/Fc chimera (Fc fusion, UniProt Q9QWJ9 22-855, looked up)
chain: FRSDKCGGTIKIENPGYLTSPGYPHSYHPSEKCEWLIQAPEPYQRIMINFNPHFDLEDRDCKYDYVEVIDGENEGGRLWGKFCGKIAPSPVVSSGPFLFIKFVSDYETHGAGFSIRYEIFKRGPECSQNYTAPTGVIKSPGFPEKYPNSLECTYIIFAPKMSEIILEFESFDLEQDSNPPGGVFCRYDRLEIWDGFPEVGPHIGRYCGQKTPGRIRSSSGILSMVFYTDSAIAKEGFSANYSVLQSSISEDFKCMEALGMESGEIHSDQITASSQYGTNWSVERSRLNYPENGWTPGEDSYREWIQVDLGLLRFVTAVGTQGAISKETKKKYYVKTYRVDISSNGEDWITLKEGNKAIIFQGNTNPTDVVFGVFPKPLITRFVRIKPASWETGISMRFEVYGCKITDYPCSGMLGMVSGLISDSQITASNQGDRNWMPENIRLVTSRTGWALPPSPHPYINEWLQVDLGDEKIVRGVIIQGGKHRENKVFMRKFKIAYSNNGSDWKMIMDDSKRKAKSFEGNNNYDTPELRAFTPLSTRFIRIYPERATHSGLGLRMELLGCEVEVPTAGPTTPNGNPVDECDDDQANCHSGTGDDFQLTGGTTVLATEKPTIIDSTIQSEFPTYGFNCEFGWGSHKTFCHWEHDSHAQLRWRVLTSKTGPIQDHTGDGNFIYSQADENQKGKVARLVSPVVYSQSSAHCMTFWYHMSGSHVGTLRVKLHYQKPEEYDQLVWMVVGHQGDHWKEGRVLLHKSLKLYQVIFEGEIGKGNLGGIAVDDISINNHIPQEDCAKPTDLDKKNTEIKIDETGSTPGYEEGKGDKNISRKPGNVLKTLDP
notes: rat neuropilin-1, unmodified extracellular domain; transmembrane and cytosolic domains replaced with a C-terminal portion of human IgG-Fc; also called NRP1-Fc; NRP1; source: bought: R&D Systems; not shown: Fc (human IgG), C-terminal, kept
B1: binds.
